Results reported in paper PMC10585004.

Molecular target: Bovine Thyroglobulin (Sigma-T1001) (bovine) (UniProt P01267)
Experiment: SAXS; XFEL small-angle scattering, liquid jet (GDVN) with reservoir delivery, thyroglobulin 0.7 mg/ml in PBS; experimental form factor compared with the profile computed (CRYSOL) from the cryo-EM dimer model

stoichiometry N: 2
Substance: Bovine Thyroglobulin (Sigma-T1001), P01267 20-2769
